B1: SH3 domain #3 from Intersectin 2, displayed on M13 phage (domain or fragment)
chain: SVGEEYIALYPYSSVEPGDLTFTEGEEILVTQKDGEWWTGSIGDRSGIFPSNYVKPKDQ
B2: SH3 domain from Lyn, displayed on M13 phage (domain or fragment)
chain: EQGDIVVALYPYDGIHPDDLSFKKGEKMKVLEEHGEWWKAKSLLTKKEGFIPSNYVAKLNT
B3: SH3 domain from Osteoclast stimulating factor 1, displayed on M13 phage (domain or fragment)
chain: GQVKVFRALYTFEPRTPDELYFEEGDIIYITDMSDTNWWKGTSKGRTGLIPSNYVAEQAE
B4: SH3 domain #2 from Nck1, displayed on M13 phage (domain or fragment)
chain: DLNMPAYVKFNYMAEREDELSLIKGTKVIVMEKCSDGWWRGSYNGQVGWFPSNYVTEEGD
B5: SH3 domain from Yes, displayed on M13 phage (domain or fragment)
chain: not shown
B6: SH3 domain from Fyn, displayed on M13 phage (domain or fragment)
chain: not shown
B7: SH3 domain from Hck, displayed on M13 phage (domain or fragment)
chain: not shown
B8: SH3 domain from p85α, displayed on M13 phage (domain or fragment)
chain: AEGYQYRALYDYKKEREEDIDLHLGDILTVNKGSLVALGFSDGQEARPEEIGWLNGYNETTGERGDFPGTYVEYIGR

Target: His-tagged Sam68 (Src-associated in mitosis, 68 kDa) (human (cDNA from HEK293T cells), UniProt Q07666 1-443)
Experiment: ELISA

Chain of His-tagged Sam68 (Src-associated in mitosis, 68 kDa) (Q07666 whole entry): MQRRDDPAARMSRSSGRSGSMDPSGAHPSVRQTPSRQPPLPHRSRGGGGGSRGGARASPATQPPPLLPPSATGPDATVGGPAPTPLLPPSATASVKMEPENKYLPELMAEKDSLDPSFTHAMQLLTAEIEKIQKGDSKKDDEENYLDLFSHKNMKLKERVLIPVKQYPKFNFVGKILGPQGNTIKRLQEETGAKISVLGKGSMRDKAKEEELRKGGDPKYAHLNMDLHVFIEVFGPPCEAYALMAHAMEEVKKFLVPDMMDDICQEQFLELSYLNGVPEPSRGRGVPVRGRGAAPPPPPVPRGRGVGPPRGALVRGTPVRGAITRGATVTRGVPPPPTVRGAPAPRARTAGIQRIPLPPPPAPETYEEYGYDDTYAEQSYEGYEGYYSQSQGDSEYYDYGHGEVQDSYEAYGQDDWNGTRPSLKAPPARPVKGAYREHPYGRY

Binder	Kd [nM]
B1	59
B2	7.9
B3	22
B4	31
B5	5.5
B6	41
B7	31
B8	13
